Experimental data as given in publication PMC7438732, “The H^+-Translocating Inorganic Pyrophosphatase From Arabidopsis thaliana Is More Sensitive to Sodium Than Its Na^+-Translocating Counterpart From Methanosarcina mazei” (Frontiers in Plant Science, 2020).

Substrate: O=P(O)(O)OP(=O)(O)O
Test: cells, lysate or membranes
Settings: 0 mM added NaCl, 100 mM KCl, pH 7.2, 30 °C, Mg2PPi substrate without excess Mg2+, Na+ from Na4PPi present

B1: AVP1 (Arabidopsis thaliana) (protein)
chain: MVAPALLPELWTEILVPICAVIGIAFSLFQWYVVSRVKLTSDLGASSSGGANNGKNGYGDYLIEEEEGVNDQSVVAKCAEIQTAISEGATSFLFTEYKYVGVFMIFFAAVIFVFLGSVEGFSTDNKPCTYDTTRTCKPALATAAFSTIAFVLGAVTSVLSGFLGMKIATYANARTTLEARKGVGKAFIVAFRSGAVMGFLLAASGLLVLYITINVFKIYYGDDWEGLFEAITGYGLGGSSMALFGRVGGGIYTKAADVGADLVGKIERNIPEDDPRNPAVIADNVGDNVGDIAGMGSDLFGSYAEASCAALVVASISSFGINHDFTAMCYPLLISSMGILVCLITTLFATDFFEIKLVKEIEPALKNQLIISTVIMTVGIAIVSWVGLPTSFTIFNFGTQKVVKNWQLFLCVCVGLWAGLIIGFVTEYYTSNAYSPVQDVADSCRTGAATNVIFGLALGYKSVIIPIFAIAISIFVSFSFAAMYGVAVAALGMLSTIATGLAIDAYGPISDNAGGIAEMAGMSHRIRERTDALDAAGNTTAAIGKGFAIGSAALVSLALFGAFVSRAGIHTVDVLTPKVIIGLLVGAMLPYWFSAMTMKSVGSAALKMVEEVRRQFNTIPGLMEGTAKPDYATCVKISTDASIKEMIPPGCLVMLTPLIVGFFFGVETLSGVLAGSLVSGVQIAISASNTGGAWDNAKKYIEAGVSEHAKSLGPKGSEPHKAAVIGDTIGDPLKDTSGPSLNILIKLMAVESLVFAPFFATHGGILFKYF
B1 was tested. Which K0.5 did it give?
The K0.5 was 0.14 ± 0.08 mM.
